What was measured:
Experiment in all cases: SPR; Biacore T200; […]; single-cycle kinetics; […]
[1] = target: GP1_(JUNV)–Fc (Junín virus (JUNV)) (UniProt O10428)
[2] = target: GP1_(MACV)–Fc (Machupo virus (MACV)) (UniProt Q8AZ52)
[3] = target: GP1_(WWAV)–Fc (Whitewater Arroyo virus (WWAV)) (UniProt Q911P0)

Work on “stand-alone apical domain (sAD) designed from White-throated woodrat TfR1 (domain or fragment)” yielded a Kd [1] of 1000 nM, a Kd [2] of 4 nM and a Kd [3] of 1000 nM.

— PMC6941993
